Test: label from the status in PepcDB records

MQLSSLTAVSPVDGRYAGKTQALRPIFSEYGLIRFRVMVEVRWLQRLAAHPQITEVPAFSAQANAILNTLAEDFSVEHAERVKEIERTTNHDVKAVEYLLKEQAAKLPELENVSEFIHFACTSEDINNLSHALMLREGRDTVMLPLMRQIADAIRELAIRFADVPMLSRTHGQPASPTTLGKELANVVYRLERQITQIAAVPLLGKINGAVGNYNAHLSAYADIDWEANARAFIEDELGLGFNPYTTQIEPHDYIAELFDAVARFNTILIDFDRDIWGYISLGYFKQRTIAGEIGSSTMPHKVNPIDFENSEGNLGIANALFQHLASKLPVSRWQRDLTDSTVLRNLGVGFAHSVIAYEASLKGISKLELNEQRIAADLDACWEVLAEPIQTVMRRYNIENPYEKLKELTRGKGIGPEALQTFIDGLDMPAQAKAELKKLTPANYIGNAAAQAKRI
protein production: not failed

MIIGNCLILKDFSSEPFWGAVEIENGTIKRVLQGEVKVDLDLSGKLVMPALFNTHTHAPMTLLRGVAEDLSFEEWLFSKVLPIEDRLTEKMAYYGTILAQMEMARHGIAGFVDMYFHEEWIAKAVRDFGMRALLTRGLVDSNGDDGGRLEENLKLYNEWNGFEGRIFVGFGPHSPYLCSEEYLKRVFDTAKSLNAPVTIHLYETSKEEYDLEDILNIGLKEVKTIAAHCVHLPERYFGVLKDIPFFVSHNPASNLKLGNGIAPVQRMIEHGMKVTLGTDGAASNNSLNLFFEMRLASLLQKAQNPRNLDVNTCLKMVTYDGAQAMGFKSGKIEEGWNADLVVIDLDLPEMFPVQNIKNHLVHAFSGEVFATMVAGKWIYFDGEYPTIDSEEVKRELARIEKELYSS
protein production: not failed

MGSSHHHHHHSSGRENLYFQGHMAATAREDGASGQERGQRGCEHYDRGCLLKAPCCDKLYTCRLCHDNNEDHQLDRFKVKEVQCINCEKIQHAQQTCEECSTLFGEYYCDICHLFDKDKKQYHCENCGICRIGPKEDFFHCLKCNLCLAMNLQGRHKCI
protein production: not failed

MDAADCYLEGNADAVEFCPHESYANLLAASTYTLQEGDCPSRSGSVYLFDVGDVEDVGLNLIQKIDTAGVFDIRWSRGGDGGDVALAQADADGCLIVYKIDETESKGTLREVSGKRISSSMCLCLDWDPSSTSIVVGLSDGSASVVSFTDSNLETVQEWKGHDFELWTASFDLNNPNLVYTGSDDCKFSCWDIRDSPADNRVFQNSKVHTMGVCCISSNPSDPYSIFTGSYDETLRVWDTRSVSRPLNETSVSLGGGVWRIKHHPSLSGVVLAACMHNGFALAKVSDGKGEVLESYNKHHSLAYGADWYRGKDQKQSVVATCSFYDRLLRVWMPITDFSTRCS
protein production: failed

MTVWDRPEPPHRPVPLDRERIVAAAVALADEGGLTAVSVRKVAARLDAGPMRLYGFISTKDELFDLMVDAVYAEILPEERAGDWREALRVLAHRTRQAALRHPWLADLLGGRPALGPNGLAVAEATLAALDGLADVDTVMRAVETVSSYFTGAVRREIADLRAERATGLSKPEWQREHGPHLTRMLATGRYPALAKAVHDGTHVDAEESFATGLDWVLDAVAVRLARPPGS
protein production: not failed

MKFQLKRLAKKRPDRVQIKIQDGQFEIIGMGVWHSYWRDPYHLLLTIPWTGFLLLICLSYLAINLIFALAYWLGGDCIANAKPGNFLDLFFFSVQTLASIGYGAMYPKTLYANTVVTIEAMIGLVGIAVMTGLAFARFSRPSARVIFSRVAVITPYNDVPTLMFRTANQRRNLILEAQMRVYLMRDEITAEGGFIRRFHDLKLLRNQTPSFTLSWLALHPIDEFSPLYGMSAESLIQTNTNIIISVSGIDETVAQVVHARYTYTASNILWNSRFVDIFHHTSDGHRYIDYKYFHDVLPLDKIG
protein production: failed

WRGIRQRKLHAEELLRLAMAHLRNQGKPVRIVDIAAGHGRYILESLRGVEPLPESILLRDYSDINVRDGSLLIEQKDLEDIARFVKGDAFDRNDLATLDPKPTLAVVSGLYELFSSNQMVGDSLAGLAAAVEPGGYLVYTGQPWHPQLELIARALTSHREGQAWVMRRRSQSEMDQLVEAAGFRKITQRVDEW
protein production: failed

MGHHHHHHSHMADVEDGEETCALASHSGSSGSKSGGDKMFSLKKWNAVAMWSWDVECDTCAICRVQVMDACLRCQAENKQEDCVVVWGECNHSFHNCCMSLWVKQNNRCPLCQQDWVVQRIGK
protein production: failed

MRAASVPFSQRTTCKGRDGFDQFQIAFASAAERDHSCDQGRRQPGGRPPIQVAAVSGFMHRQGKTPMPTLTINGRSLSVDAANDTPLLWAIREQLQMTGTKFGCGAGLCGACTVHVNGEAVRSCQTMVGDVAGKKITTIEGLSAKGDHPLQKAWIAEQVPQCGYCQSGQIMQAASLLAKNANPTKEEVVAHMDGNLCRCMTYSRIQKAIMRAATEMRTASASGNERRPT
protein production: failed

MDRPERSEVLSPEDFLQAMPIGKTASILDLGAGTGFLTIPAAKLVDNTVFALDLDAKMLELIESKAKEAGLANVETLEASMDDIPLEANSVDVVLASLVLHEADSLADVLREVSRVVKTGGYFASLEFDTKGTDLKGPPMEIQISAEKLKEELAGFGFEVVKNWQLDEGMYVSIAVKKLEHHHHHH
protein production: not failed

DEETKAFEALLSNIVKPVASDIQARTVVLTWSPPSSLINGETDESSVPELYGYEVLISSTGKDGKYKSVYVGEETNITLNDLKPAMDYHAKVQAEYNSIKGTPSEAEIFTTLSCEPDIPNPPRI
protein production: not failed

MRRNRVDVITLGCSKNLVDSEVLMRQFLSNGYTVHHDPASVCGEIVVVNTCGFIGDAQEESVNTILEMVEAKKAGRIGSLYVMGCLSERFREDLKKEIPEVDAYYGKFDWKQLISHLGKSYYAEAENRRKLTTPRHYAYLKISEGCDRSCSYCAIPIITGRHRSRPMEDLVEEVRMLVKHGTREFQLIAQDLTFYGLDLYGANRLAELTARLSDIKGVEWLRLHYAYPAQFPLDLLPVMRERPNVCKYLDMALQHISDPMLGRMRRRITKAETYELIERIRTEVPGIHLRTTLMTGHPGETERDFEELLQFVRDIRFERLGAFTYSHESGTYCDKNYQDDIPESVKQERLGELMAVQERISAAHNEAKIGSRLHVVIDRAEDGFYVGRTEYDSPEVDPEVLIPFVSGQELNPGRFYMAEVTGAEPFDLYARIVDLEHHHHHH
protein production: failed

MGSRDLISSLPDEILGKVLSLLPTKRAASTAVLSKRWNNLPALVDKLDINDAIGGPGGFPEFIDKTLALLTNSTTIKRTSLNNEFQYGESQVNTWIRSFLERGCLQLYLNAQSLYTIDTEFFTSNTLVELTITGGFSPDGLLPPGGVFFPKLKTLSLVLMTFVDSDMYELFISGCPLLEEFLLRNDEIEIPPVWNALVSSPSIKRLTIVHHFPNYREAHDGCWFRTPNLVYLDYSSYVPDWYEVDLGSLVEARLDLRSWERLRDEKAGGYGDCDSVYDDEEYPDDPILGDVTNLVTGLSNIKTLHLSPDSLEVSFPYLLLFQFEVHSSLQSLLIV
protein production: failed

MLSFLSARQSGLEDPLRLRRAQSTRRVLGLELNKDRDVERIHGSGVNTLDIEPVEGRYMLSGGSDGVVVLYDLENASRQPHYTCKAVCSVGRSHPDVHKYSVETVQWYPHDTGMFTSSSFDKTLKVWDTNTLQAADVFNFEETVYSHHMSPAATKHCLVAVGTRGPKVQLCDLKSGSCSHILQGHRQEILAVSWSPRHDYILATASADSRVKLWDVRRASGCLLTLDQHNGKKSQAAESANTAHNGKVNGLCFTSDGLHLLTIGTDNRMRLWNSSSGDNTLVNYGKVCNDSRKGLQFAVSCGCSSEFVFVPHGSTIAVYAVHSGERLAMLKGHYKSVDCCVFQPNFQELYSGSRDCNILAWVPPSYEPVPDDDDEAPAKSQLNPAFADAWSSSDEDG
protein production: failed

MELLLSKVTDAGIDPSSVSGEEAITLWEHIGRHIASTSREKAHCLIISAEYRREIKQLCDSIEELRQALELLSLPEDVEDILSVKASLSERLVEVGDYNSALTEYIASTNIAVEYGFIDEYVLAIIGMGNLCDAYGDHNRALRYYQKIDAIDHAISSRSLRLRYKLYMLACYISLKRVAEASELLGECEELSILVSDKNLAAQTHLYRAKLHRLQEEYSEALLSISSIKYTTGSATTYWLSTMVKIETAYCLNGVGHTSLANLLLESIGKRIKKHSSPILAKRFYNAMSKVSASQGQFQQALSCEKRAFRIESDLIKHIPISELGAAQLRRLSRFELQLKLILSEIENKELKETTKQHKNTVAQLQQDVFTDPLTSLHNRRWLEVKLKDMLLHDTPFALMVIDIDHFKSINDELSHLVGDKAIKSVSQELAAYFKFKGASCVRFGGEEFLVILENSQLERAEMHAENYRERIFKYAWRDILGERGLTVSIGITLHREGENTQRTFYRADKALYRAKANGRNQVCTEL
protein production: failed

— a protein production outcome set (Wang et al. 2014)
